# Experimental data: PMC4065374
# B1: GST-tagged Aeromonas caviae flagellin-specific chaperone FlaJ (GST-FlaJ) (natural protein)
# chain: MYKRNIKAYTAGNLAADLATADPHRVIQLMMQGCLERLAQAKGAIERNDMEAKSIAISKAQGLLHGLQDALDMSQGRMAEDLYGLYAYMDERVWDASLNRDTEPLEEVMTLMLTIKSGWDQLPETEKNQGYQMRQQLGEL
# Target: glycosylated Aeromonas caviae polar flagellin FlaA, FlaA (+pse) (Aeromonas caviae (endogenous in A. caviae Sch3N and its flaB mutant AAR27))
# Experiment: far-Western, overlay or dot blot; glycosylated and unglycosylated FlaA titrated across an SDS-PAGE gel, transferred to nitrocellulose, probed with a constant concentration of GST-FlaJ; αGST-HRP, densitometry, triplicate blots
binder,measurement,value
B1,fold more GST-FlaJ bound than to equimolar unglycosylated FlaA,5 fold
